Values quoted from earlier work as cited in paper PMC3359799.
Read-outs that look alike come from different tables or passages of the source.

Tests used:
[1] = target: Exendin-4 (Heloderma suspectum) (UniProt P26349)
GLP-1 (Homo sapiens) [2] = target: GLP-1 (Homo sapiens) (UniProt P01275)
[3] = target: Exendin-4 (Heloderma suspectum) (UniProt P26349); remark: listed apart in the source
GLP-1 (Homo sapiens) [4] = target: GLP-1 (Homo sapiens) (UniProt P01275); remark: listed apart in the source
[5] = target: Exendin-4 (Heloderma suspectum) (UniProt P26349); experiment: surface plasmon resonance
GLP-1 (Homo sapiens) [6] = target: GLP-1 (Homo sapiens) (UniProt P01275); remark: listed apart in the source

UniProt P01275, sequence (P01275 98-127): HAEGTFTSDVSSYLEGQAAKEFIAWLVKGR
UniProt P26349, sequence (P26349 48-86): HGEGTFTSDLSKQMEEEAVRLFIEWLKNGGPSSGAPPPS

Substance	Kd [1]	Kd (GLP-1 (Homo sapiens) [2])	Kd [3]	Kd (GLP-1 (Homo sapiens) [4])	Kd [5]	Kd (GLP-1 (Homo sapiens) [6])
GLP-1 receptor (from UniProt P43220)	0.1 nM	0.3 nM	–	–	–	–
GLP-1 receptor ECD (from UniProt P43220)	–	–	13 nM	800 nM	900 nM	1000 nM
